Measurements: paper PMC10786891, “Massively parallel profiling of RNA-targeting CRISPR-Cas13d”
Changes are numbered by the printed parent chain. In names and notes the source's numbering stands.

T1: EsCas13d, nuclease-dead (Eubacterium siraeum, UniProt B0MS50, R295A;H300A;R849A;H854A)
T1 sequence: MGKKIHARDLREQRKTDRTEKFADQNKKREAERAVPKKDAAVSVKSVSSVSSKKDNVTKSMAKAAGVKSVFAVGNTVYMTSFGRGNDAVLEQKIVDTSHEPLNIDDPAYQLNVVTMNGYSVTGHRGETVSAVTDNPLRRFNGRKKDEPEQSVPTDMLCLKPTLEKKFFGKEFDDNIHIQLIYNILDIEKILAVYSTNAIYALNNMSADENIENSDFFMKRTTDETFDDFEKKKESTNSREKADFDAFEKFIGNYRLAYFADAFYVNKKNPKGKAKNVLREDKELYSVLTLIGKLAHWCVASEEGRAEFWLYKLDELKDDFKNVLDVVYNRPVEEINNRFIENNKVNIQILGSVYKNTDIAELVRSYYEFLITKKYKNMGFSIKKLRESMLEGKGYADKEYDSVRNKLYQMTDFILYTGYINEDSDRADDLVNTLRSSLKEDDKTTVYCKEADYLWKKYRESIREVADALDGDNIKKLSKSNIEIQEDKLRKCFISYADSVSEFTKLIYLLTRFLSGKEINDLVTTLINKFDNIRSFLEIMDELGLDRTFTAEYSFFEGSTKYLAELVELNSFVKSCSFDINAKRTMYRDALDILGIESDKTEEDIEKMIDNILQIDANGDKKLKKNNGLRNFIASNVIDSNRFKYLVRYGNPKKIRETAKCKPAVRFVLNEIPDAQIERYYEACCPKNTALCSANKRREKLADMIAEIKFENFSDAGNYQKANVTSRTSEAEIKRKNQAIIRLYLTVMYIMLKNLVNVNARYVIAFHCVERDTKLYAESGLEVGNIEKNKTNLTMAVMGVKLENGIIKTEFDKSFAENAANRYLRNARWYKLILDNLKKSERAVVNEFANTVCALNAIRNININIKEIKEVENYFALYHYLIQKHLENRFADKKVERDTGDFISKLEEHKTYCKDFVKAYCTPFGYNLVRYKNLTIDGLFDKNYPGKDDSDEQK

B1: target 1 insU 3' of 18,insG 3' of 8 (mixed)
RNA 1: CACCCGUGCAAAAAUGCAGGGGUCUAAAACUGAGCGGAUAACCUCUCUAUGG
RNA 2: GGGAAUGGAUCCACAUCUACGAAUUCGUACCAUAUGAGAGGUUAUGCCGCUCACCGAGAUCGGAAGAGCACACGU
B2: target 1 U3G,U8A (mixed)
RNA 1: B1 RNA 1
RNA 2: GGGAAUGGAUCCACAUCUACGAAUUCGUACCAUAGAGAGGUUAACCGCGCACCGAGAUCGGAAGAGCACACGU
B3: target 1 C6A,A9U (mixed)
RNA 1: B1 RNA 1
RNA 2: B2 RNA 2 with A43U, A44U, C46A, G49U
B4: target 1 insC 3' of 20,insG 3' of 6 (mixed)
RNA 1: B1 RNA 1
RNA 2: B1 RNA 2 with U33C, A34U, U35A, G46C, C48G
B5: target 2 MT 5'PFS GGA 3'PFS AAC (mixed)
RNA 1: CACCCGUGCAAAAUUGCAGGGGUCUAAAACCUUCUCCAAAUUGUUUCAUCCU
RNA 2: GGGAAUGGAUCCACAUCUACGAAUUCGGAAGGAUGAAACAAUUUGGAGAAGAACAGAUCGGAAGAGCACACGU
B6: target 2 MT 5'PFS UAA 3'PFS AUU (mixed)
RNA 1: B5 RNA 1
RNA 2: B5 RNA 2 with G27U, G28A, A53U, C54U
B7: target 2 MT 5'PFS AAC 3'PFS CAG (mixed)
RNA 1: B5 RNA 1
RNA 2: B5 RNA 2 with G27A, G28A, A29C, A52C, C54G
B8: target 2 MT 5'PFS AAG 3'PFS UCC (mixed)
RNA 1: B5 RNA 1
RNA 2: B5 RNA 2 with G27A, G28A, A29G, A52U, A53C
B9: target 2 MT 5'PFS UAA 3'PFS AUA (mixed)
RNA 1: B5 RNA 1
RNA 2: B5 RNA 2 with G27U, G28A, A53U, C54A
B10: target 2 MT 5'PFS AAU 3'PFS CCG (mixed)
RNA 1: B5 RNA 1
RNA 2: B5 RNA 2 with G27A, G28A, A29U, A52C, A53C, C54G
B11: target 2 MT 5'PFS GAU 3'PFS AUC (mixed)
RNA 1: B5 RNA 1
RNA 2: B5 RNA 2 with G28A, A29U, A53U
B12: target 2 MT 5'PFS AGC 3'PFS CUU (mixed)
RNA 1: B5 RNA 1
RNA 2: B5 RNA 2 with G27A, A29C, A52C, A53U, C54U
B13: target 2 MT 5'PFS AAC 3'PFS CAU (mixed)
RNA 1: B5 RNA 1
RNA 2: B5 RNA 2 with G27A, G28A, A29C, A52C, C54U
B14: target 2 MT 5'PFS GAU 3'PFS AUA (mixed)
RNA 1: B5 RNA 1
RNA 2: B5 RNA 2 with G28A, A29U, A53U, C54A
B15: target 2 MT 5'PFS AAU 3'PFS CUU (mixed)
RNA 1: B5 RNA 1
RNA 2: B5 RNA 2 with G27A, G28A, A29U, A52C, A53U, C54U
B16: target 2 MT 5'PFS AGC 3'PFS CUA (mixed)
RNA 1: B5 RNA 1
RNA 2: B5 RNA 2 with G27A, A29C, A52C, A53U, C54A
B17: target 2 MT 5'PFS UAC 3'PFS CUG (mixed)
RNA 1: B5 RNA 1
RNA 2: B5 RNA 2 with G27U, G28A, A29C, A52C, A53U, C54G
B18: target 2 MT 5'PFS AAC 3'PFS CAC (mixed)
RNA 1: B5 RNA 1
RNA 2: B5 RNA 2 with G27A, G28A, A29C, A52C
B19: target 2 MT 5'PFS GUG 3'PFS UAG (mixed)
RNA 1: B5 RNA 1
RNA 2: B5 RNA 2 with G28U, A29G, A52U, C54G
B20: target 2 MT 5'PFS AAC 3'PFS CAA (mixed)
RNA 1: B5 RNA 1
RNA 2: B5 RNA 2 with G27A, G28A, A29C, A52C, C54A
B21: target 2 MT 5'PFS AAU 3'PFS CUC (mixed)
RNA 1: B5 RNA 1
RNA 2: B5 RNA 2 with G27A, G28A, A29U, A52C, A53U
B22: target 2 MT 5'PFS UUU 3'PFS CCU (mixed)
RNA 1: B5 RNA 1
RNA 2: B5 RNA 2 with G27U, G28U, A29U, A52C, A53C, C54U
B23: target 2 MT 5'PFS UAC 3'PFS CUC (mixed)
RNA 1: B5 RNA 1
RNA 2: B5 RNA 2 with G27U, G28A, A29C, A52C, A53U
B24: target 2 MT 5'PFS UAC 3'PFS CUU (mixed)
RNA 1: B5 RNA 1
RNA 2: B5 RNA 2 with G27U, G28A, A29C, A52C, A53U, C54U
B25: target 2 MT 5'PFS UAA 3'PFS AUC (mixed)
RNA 1: B5 RNA 1
RNA 2: B5 RNA 2 with G27U, G28A, A53U
B26: target 2 MT 5'PFS GCU 3'PFS AAC (mixed)
RNA 1: B5 RNA 1
RNA 2: B5 RNA 2 with G28C, A29U
B27: target 2 MT 5'PFS GGA 3'PFS AAA (mixed)
RNA 1: B5 RNA 1
RNA 2: B5 RNA 2 with C54A
B28: target 2 MT 5'PFS UUU 3'PFS CCA (mixed)
RNA 1: B5 RNA 1
RNA 2: B5 RNA 2 with G27U, G28U, A29U, A52C, A53C, C54A
B29: target 2 MT 5'PFS GGA 3'PFS AAG (mixed)
RNA 1: B5 RNA 1
RNA 2: B5 RNA 2 with C54G
B30: target 2 MT 5'PFS AAU 3'PFS CUG (mixed)
RNA 1: B5 RNA 1
RNA 2: B5 RNA 2 with G27A, G28A, A29U, A52C, A53U, C54G
B31: target 2 MT 5'PFS UAA 3'PFS AUG (mixed)
RNA 1: B5 RNA 1
RNA 2: B5 RNA 2 with G27U, G28A, A53U, C54G
B32: target 2 MT 5'PFS GCU 3'PFS AAG (mixed)
RNA 1: B5 RNA 1
RNA 2: B5 RNA 2 with G28C, A29U, C54G
B33: target 2 MT 5'PFS GCU 3'PFS AAA (mixed)
RNA 1: B5 RNA 1
RNA 2: B5 RNA 2 with G28C, A29U, C54A
B34: target 2 MT 5'PFS UAC 3'PFS CUA (mixed)
RNA 1: B5 RNA 1
RNA 2: B5 RNA 2 with G27U, G28A, A29C, A52C, A53U, C54A
B35: target 2 MT 5'PFS GGC 3'PFS AGU (mixed)
RNA 1: B5 RNA 1
RNA 2: B5 RNA 2 with A29C, A53G, C54U
B36: target 2 MT 5'PFS GAU 3'PFS AUG (mixed)
RNA 1: B5 RNA 1
RNA 2: B5 RNA 2 with G28A, A29U, A53U, C54G
B37: target 2 MT 5'PFS AGC 3'PFS CUG (mixed)
RNA 1: B5 RNA 1
RNA 2: B5 RNA 2 with G27A, A29C, A52C, A53U, C54G
B38: target 2 MT 5'PFS AGC 3'PFS CUC (mixed)
RNA 1: B5 RNA 1
RNA 2: B5 RNA 2 with G27A, A29C, A52C, A53U

What follows are binders tested against T1, EsCas13d, nuclease-dead (assay: crRNA (strand 1, pre-loaded); Mg2+; 40 mM Tris-HCl pH 7.5, 150 mM NaCl, 6 mM MgCl2, 1 mM DTT, 0.1% Tween-20, 0.2 mg/ml BSA; 25 C; 10 min per concentration, then washed). Settings: tags: His6-TwinStrep-SUMO cleaved; N-terminal SNAP kept (SNAP-Surface 488); label: 3' end held by stalled T7 RNA polymerase.
Binder B1 has a Kd of 41 ± 4 nM. B2 showed a Kd of 12 ± 0.6 nM. For B3, the Kd was 7.38 ± 0.22 nM. With B4 the Kd was 7.5 ± 0.4 nM. B5 was tested, and the Kd was 7.4 ± 0.7 nM. Work on B6 yielded a Kd of 3.9 ± 0.6 nM. With B7 the Kd was 3.6 ± 0.6 nM. B8 showed a Kd of 16.3 ± 2.5 nM. With B9 the Kd was 4.3 ± 0.6 nM. B10 gave a Kd of 5.9 ± 0.7 nM. B11 showed a Kd of 10.5 ± 1.8 nM. B12 showed a Kd of 11.7 ± 1.5 nM. With B13 the Kd was roughly 8 nM. B14 showed a Kd of 14 ± 6 nM. In the case of B15, the Kd is reported as 9.4 ± 2 nM. In the case of B16, the Kd is reported as 8.6 ± 1.5 nM. B17 gave a Kd of 10.4 ± 1.7 nM. Binder B18 has a Kd of 6.2 ± 2 nM. B19 gave a Kd of 13.3 ± 1.3 nM. In the case of B20, the Kd is reported as roughly 7 nM. Work on B21 yielded a Kd of 7.3 ± 0.8 nM. B22 gave a Kd of 52 ± 15 nM. With B23 the Kd was 16 ± 6 nM. Work on B24 yielded a Kd of 7.2 ± 1.1 nM. B25 showed a Kd of 5.1 ± 0.5 nM. Binder B26 has a Kd of 10.1 ± 1.9 nM. B27 gave a Kd of 8.6 ± 1.9 nM. B28 was tested, and the Kd was 18.1 ± 2.5 nM. Binder B29 has a Kd of 9.3 ± 1.4 nM. Work on B30 yielded a Kd of 4.2 ± 0.5 nM. B31 gave a Kd of 5.6 ± 1.5 nM. B32 was tested, and the Kd was 11.3 ± 2 nM. Work on B33 yielded a Kd of 5.9 ± 1 nM. B34 gave a Kd of 6.8 ± 1 nM. With B35 the Kd was 11.5 ± 0.8 nM. B36 was tested, and the Kd was 11.8 ± 1.1 nM. B37 was tested, and the Kd was 16.5 ± 3.4 nM. B38 showed a Kd of 11.5 ± 2.8 nM.
